Here are results for two molecules from US20230257458A1 (SUNSHINE LAKE PHARMA, published 2023).

The target in test [1] is T1, IL-11-Fc protein (UniProt P20809 22-199, limits assumed).
T1 construct: also called IL-11 recombinant protein with Fc tag; not shown: Fc tag
T1 sequence (looked up): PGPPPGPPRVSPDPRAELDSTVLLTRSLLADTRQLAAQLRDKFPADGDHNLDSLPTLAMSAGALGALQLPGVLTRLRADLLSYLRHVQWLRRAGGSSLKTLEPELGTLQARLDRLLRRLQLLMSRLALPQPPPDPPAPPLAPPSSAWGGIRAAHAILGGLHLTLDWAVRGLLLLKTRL
Put plainly: flow competition: IL-11-Fc + antibody dilutions on membrane-IL-11R CHO cells. On the procedure:
Then the plate was incubated with 1.5*10\hat{ }5 membrane-IL-11R CHO cells (100 ul/well) for 1 h at room temperature. After incubation, the plate was centrifuged at 1500 rpm for 5 min, washed three times with PBS, and 1:400 diluted flow secondary antibody Goat-anti-Fc-FITC (Abcam, ab98529) was added with 200 ul/well. Then, the plate was incubated at 4° C. for 1 h, centrifuged at 1500 rpm for 5 min, washed three times with PBS, resuspended cells in 180 ul PBS, and detected by flow cytometry.

Test [2] concerns the target T2, IL-11 protein (UniProt P20809 22-199, limits assumed).
T2 construct: also called IL-11 antigen
T2 sequence (looked up): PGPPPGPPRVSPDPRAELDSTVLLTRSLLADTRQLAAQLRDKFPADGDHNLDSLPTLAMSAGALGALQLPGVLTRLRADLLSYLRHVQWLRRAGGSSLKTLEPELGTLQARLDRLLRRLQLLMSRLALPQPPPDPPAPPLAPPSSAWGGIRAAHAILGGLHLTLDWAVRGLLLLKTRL
Put plainly: SPR (Biacore), IgG captured, IL-11 6.25-400 nM as analyte. On the procedure:
The measure method included the steps of capturing the humanized antibody at a flow rate of 10 ul/min. […] Finally the chip was regenerated with 10 mM glycine buffer.
(In general: In SPR one partner is held on a chip, and binding of the other changes the refractive index at the surface.)

The target in test [3] is T3, recombinant human protein antigen hu-IL-11-His tag (human, UniProt P20809 22-199).
T3 construct: Expressed in CHO, Ni column and Superdex75; not shown: His tag
T3 sequence (looked up): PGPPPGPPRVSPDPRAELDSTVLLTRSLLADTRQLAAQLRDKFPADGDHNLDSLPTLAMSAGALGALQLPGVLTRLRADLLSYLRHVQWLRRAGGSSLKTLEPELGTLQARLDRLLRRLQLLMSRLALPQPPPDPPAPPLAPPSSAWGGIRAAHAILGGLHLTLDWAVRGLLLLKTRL
Put plainly: BLI, IL-11 (His tag) on Ni-NTA sensor, antibody as analyte. On the procedure:
Bio-Layer Interferometry (BLI) was used for binding affinity determination. […] The analytes were diluted in 7 concentration gradients, the binding time was 60 s and the dissociation time was 1000 s. The buffer was 20 mM PBS, 0.15M NaCl, 0.1% BSA, 0.05% Tween 20, pH 7.
A general note: Biolayer interferometry detects binding as a change in optical thickness at a sensor tip.

The target in test [4] is T1, IL-11-Fc protein. Nature of the test: flow competition: IL-11-Fc + antibody gradient on membrane-IL-11R CHO cells; 3-6A4 antibody. The text has this:
The secondary antibody used in the detection was a secondary antibody conjugated with a FITC fluorophore (Goat-anti-Fc-FITC) (Abcam, ab98529).

The target of test [5] is T4, recombinant CT-1 (R&D systems, 612-CD-010) (UniProt Q16619 2-201, limits assumed).
T4 sequence (looked up): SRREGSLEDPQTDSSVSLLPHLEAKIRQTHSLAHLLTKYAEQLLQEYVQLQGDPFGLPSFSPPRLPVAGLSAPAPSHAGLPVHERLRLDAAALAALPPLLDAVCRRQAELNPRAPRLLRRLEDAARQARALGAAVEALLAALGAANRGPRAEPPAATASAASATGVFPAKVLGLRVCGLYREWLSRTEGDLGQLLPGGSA
Put plainly: ELISA, cytokine coated.

Test [6] has as its target T5, recombinant CNTF (R&D systems, 257-NT-010) (UniProt P26441 2-200).
T5 sequence (looked up): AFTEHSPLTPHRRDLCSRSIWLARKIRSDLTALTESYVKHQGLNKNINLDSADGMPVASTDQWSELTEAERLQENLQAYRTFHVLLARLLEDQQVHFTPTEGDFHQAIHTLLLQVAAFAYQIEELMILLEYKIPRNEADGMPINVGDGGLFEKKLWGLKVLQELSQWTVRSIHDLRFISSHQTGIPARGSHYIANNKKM
Nature of the test: ELISA, cytokine coated.

Test [7] deals with T6, recombinant OSM (Genscript-z03132) (UniProt P13725 26-234, limits assumed).
T6 sequence (looked up): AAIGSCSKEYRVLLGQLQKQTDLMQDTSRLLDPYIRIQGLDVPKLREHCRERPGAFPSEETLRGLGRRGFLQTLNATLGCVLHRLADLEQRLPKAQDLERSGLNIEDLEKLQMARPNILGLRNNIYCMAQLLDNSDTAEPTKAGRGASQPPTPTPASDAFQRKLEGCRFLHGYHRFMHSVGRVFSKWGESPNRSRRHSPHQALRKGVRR
Nature of the test: ELISA, cytokine coated. (In general: In an ELISA, binding on a coated surface is turned into a signal by an enzyme label.)

Test [8] concerns the target T7, recombinant IL-6 (Sinobiological-10395-HNAE) (UniProt P05231 30-212). Nature of the test: ELISA, cytokine coated.
The target in test [9] is T8, recombinant IL-27 (R&D systems, 2526-IL-010) (UniProt Q8NEV9 29-243; Q14213 21-229).
T8 sequence (looked up) 1: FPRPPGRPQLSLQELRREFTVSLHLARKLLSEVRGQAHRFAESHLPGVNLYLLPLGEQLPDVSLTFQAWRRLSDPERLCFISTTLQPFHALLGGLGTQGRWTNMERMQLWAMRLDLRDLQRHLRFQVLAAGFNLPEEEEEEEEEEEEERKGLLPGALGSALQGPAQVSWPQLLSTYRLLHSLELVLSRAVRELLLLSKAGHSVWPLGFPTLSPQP
T8 sequence (looked up) 2: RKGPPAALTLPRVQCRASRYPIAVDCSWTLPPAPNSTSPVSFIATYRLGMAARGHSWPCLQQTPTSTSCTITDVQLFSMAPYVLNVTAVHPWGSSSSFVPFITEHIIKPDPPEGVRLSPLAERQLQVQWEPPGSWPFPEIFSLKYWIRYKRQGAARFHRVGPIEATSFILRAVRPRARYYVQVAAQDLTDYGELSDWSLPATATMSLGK
Nature of the test: ELISA, cytokine coated.

The target in test [10] is T9, recombinant LIF (Peprotech, 300-05) (UniProt P15018 23-202). Nature of the test: ELISA, cytokine coated.
Test [11] deals with T10, recombinant CLC (R&D systems, 962-CL-050) (UniProt Q9UBD9 28-225).
T10 sequence (looked up): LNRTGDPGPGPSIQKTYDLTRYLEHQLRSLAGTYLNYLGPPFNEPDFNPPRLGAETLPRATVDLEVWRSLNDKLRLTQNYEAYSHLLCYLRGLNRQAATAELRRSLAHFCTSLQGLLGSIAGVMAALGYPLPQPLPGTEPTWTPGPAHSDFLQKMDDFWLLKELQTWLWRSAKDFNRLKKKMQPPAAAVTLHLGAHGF
Nature of the test: ELISA, cytokine coated.

For test [12], the target named is T11, recombinant IL-31 (Peprotech, 200-31) (UniProt Q6EBC2 24-164).
T11 sequence (looked up): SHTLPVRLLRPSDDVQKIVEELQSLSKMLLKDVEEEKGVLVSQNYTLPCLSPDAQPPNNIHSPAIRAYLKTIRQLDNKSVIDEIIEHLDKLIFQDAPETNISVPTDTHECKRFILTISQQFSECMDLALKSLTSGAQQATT
Put plainly: ELISA, cytokine coated.

The target of test [13] is T2, IL-11 protein. Put plainly: ELISA, monoclonal hybridoma supernatant on IL-11. The text has this: (§1) Cell lines with high secretion of specific antibody were selected for expanded culture and cryopreservation.
Test [14] has as its target T4, recombinant CT-1 (R&D systems, …). Nature of the test: ELISA, cytokine coated. The source holds these as a separate data set.
Test [15] has as its target T5, recombinant CNTF (R&D systems, …). Nature of the test: ELISA, cytokine coated. This is another data set of the same source.
For test [16], the target named is T12, recombinant IL-11 (LSBio, LS-G132887-10) (UniProt P20809 22-199).
T12 construct: also called IL-11 cytokine
T12 sequence (looked up): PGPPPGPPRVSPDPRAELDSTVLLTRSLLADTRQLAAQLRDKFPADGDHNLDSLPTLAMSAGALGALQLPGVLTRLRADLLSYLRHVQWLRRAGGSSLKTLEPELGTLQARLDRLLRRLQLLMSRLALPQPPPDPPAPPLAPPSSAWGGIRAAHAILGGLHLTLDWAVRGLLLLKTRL
Nature of the test: ELISA, cytokine coated.

Test [17] concerns the target T6, recombinant OSM (Genscript-z03132). Put plainly: ELISA, cytokine coated. This is another data set of the same source.
In test [18] the target is T7, recombinant IL-6 …. Nature of the test: ELISA, cytokine coated. The source holds these as a separate data set.
The target of test [19] is T8, recombinant IL-27 (R&D systems, …). Put plainly: ELISA, cytokine coated. The source holds these as a separate data set.
For test [20], the target named is T9, recombinant LIF (Peprotech, 300-05). Put plainly: ELISA, cytokine coated. This is another data set of the same source.
For test [21], the target named is T10, recombinant CLC (R&D systems, …). Nature of the test: ELISA, cytokine coated. This is another data set of the same source.
Test [22] deals with T11, recombinant IL-31 (Peprotech, 200-31). Put plainly: ELISA, cytokine coated. The source holds these as a separate data set.
Test [23] concerns the target T2, IL-11 protein. Put plainly: flow competition: IL-11 + antibody on IL-11R cells; lower = more blocking.
Text: as §1

T9 sequence (P15018 23-202 limits assumed): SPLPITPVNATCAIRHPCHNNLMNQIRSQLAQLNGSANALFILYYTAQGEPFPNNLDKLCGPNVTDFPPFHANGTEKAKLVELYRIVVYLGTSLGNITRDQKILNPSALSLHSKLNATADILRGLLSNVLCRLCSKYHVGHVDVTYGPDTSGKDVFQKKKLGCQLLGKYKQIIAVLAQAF

B1: humanized antibody VH1+VL4, full-length (IgG format) (antibody, V domains shown)
VH: QVQLVQSGAEVKKPGASVKVSCKASDYTFTNYWLGWVRQAPGQGLEWMGHIYPGGGYTNYNEKFKGRVTMTRDTSTSTVYMELSSLRSEDTAVYYCARVRSGNDALDFWGQGTLVTVSS
VL: EIVLTQSPATLSLSPGERATLSCRASESVDEYGISFMNWFQQKPGQAPRLLIYSASNQGSGIPARFSGSGSGTDFTLTISSLEPEDFAMYFCQQSKEVPWTFGGGTKLEIK
As usually defined, the EC50 is the midpoint of the concentration-response curve. In general, Kd refers to the free concentration of one partner at which half of the binding sites on the other are occupied at equilibrium, for simple one-to-one binding. For orientation: koff means the rate constant with which the complex falls apart. As a reminder, the kon is the second-order rate constant of association. As to B1, the EC50 with IL-11-Fc protein [1] came out at 12.5 µg/mL. In the test with IL-11 protein [2], binding was put at a Kd of 10 nM, the off-rate constant (koff) turned out to be 0.000545 s⁻¹ and the on-rate (kon) worked out at 54300 M⁻¹ s⁻¹.

B2: 3-6A4 (antibody, human IgG1, kappa, V domains shown)
VH: QIQLVQSGPELKKPGETVKISCKASGYTFTTNGINWVKQAAGKGLKWMGWINTNTGEPTNAEELKGRFAFSLETSASTAYLQINNLKNEDAAIYFCAREGAFGLDYWGQGTSVTVSS
VL: SIVMTQSPKFLLVSAGDRVIITCKASQSVSNDVVWYQQKPGQSPKLLIYYGSHRNTGVPTRFTGSGYGTDFTFTISTVQAEDLAVYFCQQDFFSPWTFGGGTKLEIKR
notes: also called 3-6A4 antibody; 3-6A4 mAb
Broadly, the IC50 is the point on the concentration scale where inhibition reaches its midpoint. For B2, in [3], the Kd is 0.0393 nM. For the same molecule, the koff in [3] was determined as 4.16e-05 s⁻¹. In addition, the kon in test [3] was 1.06e+06 M⁻¹ s⁻¹. Further, the IC50 with IL-11-Fc protein [4] is roughly 7 µg/mL. The binding result in test [5], in test [6], in test [7], in test [8], in [9] and in [10] was “no binding” in each case. Further, the binding result in [11] and in test [12] was “no binding” each time. Further, the OD450 with IL-11 protein [13] is 1.58. Further, the OD450 nm in test [14] was 0.041; in test [15], 0.064; in test [16], 1.88; in [17], 0.102; in test [18] it was 0.039; in test [19] it was 0.035. The results for the OD450 nm in [20], in test [21] and in test [22] were 0.084, 0.042 and 0.088, respectively. Moreover, the “FITC Mean” value with IL-11 protein [23] was 3040.
